First the molecules themselves.
B1: GSTVAMP8 K24AM27A (domain or fragment, mouse, UniProt O70404 1-76, looked up)
chain: MEEASGSAGNDRVRNLQSEVEGVANIATQNVERILSRGENLDHLRNKTEDLEATSEHFKTTSQKVARKFWWKNVKM
notes: VAMP8, mouse, residues 1-76; pGEX 4T2 VAMP8_(1-76) (mouse) 'and mutants thereof'; also called K24AM27A VAMP8; Lys24AlaMet27Ala mutant of VAMP8; source: E. coli BL21(DE3) pLysS, purified (glutathione sepharose, S200 gel filtration)
B5: GST-VAMP8 (VAMP8 residues 1-76, full cytoplasmic portion) (domain or fragment, mouse, UniProt O70404 1-76, looked up)
chain: MEEASGSAGNDRVRNLQSEVEGVKNIMTQNVERILSRGENLDHLRNKTEDLEATSEHFKTTSQKVARKFWWKNVKM
notes: VAMP8, mouse, residues 1-76 (full cytoplasmic portion); Construct pGEX 4T2 VAMP8_(1-76); GST of pGEX vectors is N-terminal (surmise); also called VAMP8_(1-76); wt GSTVAMP8; source: E. coli BL21(DE3) pLysS, purified (glutathione sepharose, S200 gel filtration)

One data set has as its target T1, SNAP23, GST cleaved (human, UniProt O00161 1-211).
T1 construct: SNAP23, human; Construct pGEX 4T1 SNAP23 (human); source: E. coli BL21(DE3) pLysS, purified (glutathione sepharose, thrombin cleavage of GST); not shown: GST, N-terminal, cleaved
T1 sequence (looked up): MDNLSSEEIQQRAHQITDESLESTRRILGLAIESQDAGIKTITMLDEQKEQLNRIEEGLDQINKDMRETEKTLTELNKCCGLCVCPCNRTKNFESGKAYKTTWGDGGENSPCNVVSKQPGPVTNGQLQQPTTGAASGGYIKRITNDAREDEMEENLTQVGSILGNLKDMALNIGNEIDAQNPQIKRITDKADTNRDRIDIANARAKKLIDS
The data set can be described thus: pull-down; SNARE complex formation: GST-VAMP8 incubated with a three fold molar excess of SNAP23 and syntaxin3 at 4°C for 48 hr in 20 mM HEPES pH 7.4, 500 mM NaCl, 4 mM DTT, 0.5% NP-40; purified on glutathione-sepharose, then S200 gel filtration. To be noted: both partners purified.

The target in data set [1] is T2, CALM_(ANTH(1-289)), GST cleaved (rat, UniProt O55012 1-289).
T2 construct: analyte of the liposome-based SPR and crystallised as 3ZYK; also called GST cleaved CALM_(ANTH); source: E. coli BL21(DE3) pLysS, purified (glutathione sepharose, thrombin cleavage of GST, S200 gel filtration); not shown: GST, N-terminal, cleaved
T2 sequence (looked up): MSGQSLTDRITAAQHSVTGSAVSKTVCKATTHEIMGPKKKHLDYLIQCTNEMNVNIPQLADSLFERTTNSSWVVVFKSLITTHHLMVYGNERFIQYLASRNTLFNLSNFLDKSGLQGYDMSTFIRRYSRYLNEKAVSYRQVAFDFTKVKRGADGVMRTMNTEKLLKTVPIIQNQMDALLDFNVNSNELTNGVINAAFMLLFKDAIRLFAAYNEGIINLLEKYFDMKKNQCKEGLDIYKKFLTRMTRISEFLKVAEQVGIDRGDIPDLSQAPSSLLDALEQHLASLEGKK
The data set can be described thus: SPR; liposome-based SPR, Biacore 3000, L1 chip; PC/PE + 5% DGS-NTA(Ni) liposomes with captured His12-tagged VAMP8 (600RU); GST cleaved CALM_(ANTH) as analyte, 10 nM to 50 μM, one minute injections at 50 μl/min; PC/PE binding subtracted. To be noted: both partners purified.

Data set [2] deals with the molecule itself. In words: SEC-MALS; analytical S200 10/300 column, 20 mM HEPES pH 7.4, 120 mM NaCl, 4 mM DTT, 0.5 mL/min, inline MALS.
Data set [3] concerns the target T3, His6MycCALM_(ANTH) (CALM ANTH domain, residues 1-289) (rat, UniProt O55012 1-289).
T3 construct: source: E. coli BL21(DE3) pLysS, purified (Ni2+-NTA agarose, S200 gel filtration)
T3 sequence (looked up): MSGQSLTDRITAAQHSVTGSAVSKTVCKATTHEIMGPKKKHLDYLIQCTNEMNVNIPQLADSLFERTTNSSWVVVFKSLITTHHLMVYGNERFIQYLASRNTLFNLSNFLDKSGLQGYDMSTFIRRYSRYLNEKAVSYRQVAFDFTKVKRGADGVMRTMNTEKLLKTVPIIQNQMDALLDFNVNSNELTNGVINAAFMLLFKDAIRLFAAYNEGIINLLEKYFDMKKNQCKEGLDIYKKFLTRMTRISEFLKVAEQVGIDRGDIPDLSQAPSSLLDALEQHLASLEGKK
In words: ITC; VPiTC; 2 mM His6MycCALM_(ANTH) (WT or mutant) or GST cleaved Epsin_(ENTH) titrated in 37 injections of 4-8 μL into 0.15 mM GST-SNARE in the cell; 100 mM HEPES pH 7.4, 150 mM NaCl, 4 mM DTT; legends give a representative run with SEM of the fit, the text the average of all runs. To be noted: both partners purified.

The next data set deals with GST-SNARE (WT or mutant). The data set is described as above.
The data set “GSTVAMP8 K24AM27A” has as its target B1. In words: pull-down; SNARE complex formation: GST-VAMP8 incubated with a three fold molar excess of SNAP23 and syntaxin3 at 4°C for 48 hr in 20 mM HEPES pH 7.4, 500 mM NaCl, 4 mM DTT, 0.5% NP-40; purified on glutathione-sepharose, then S200 gel filtration. To be noted: both partners purified.
In data set [4] the target is B5. The data set is described as above. To be noted: both partners purified.
The target in data set [5] is T4, CALM_(ANTH(1-264)) part of the CALM_(ANTH(1-264)):VAMP8_((11-41)) chimera (rat, UniProt O55012 1-264).
T4 construct: PDB 3ZYM), VAMP8 11-41; also called CALM_(ANTH) in the chimeric complex; source: E. coli BL21(DE3) pLysS, purified (glutathione sepharose, thrombin cleavage of GST, S200 gel filtration); not shown: GST, N-terminal, cleaved
T4 sequence (looked up): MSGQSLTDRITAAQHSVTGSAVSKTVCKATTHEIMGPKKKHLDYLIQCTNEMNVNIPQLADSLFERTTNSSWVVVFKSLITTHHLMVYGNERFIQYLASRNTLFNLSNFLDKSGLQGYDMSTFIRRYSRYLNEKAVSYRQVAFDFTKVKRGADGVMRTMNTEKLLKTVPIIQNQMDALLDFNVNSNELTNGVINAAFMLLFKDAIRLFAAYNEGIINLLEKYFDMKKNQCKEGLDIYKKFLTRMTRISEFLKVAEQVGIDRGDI
In words: crystal structure; CALM_(ANTH(1-264)):VAMP8_((11-41)) chimera on one chain, GST cleaved; sitting drops at 16°C, 100 mM phosphate-citrate pH 4.2, 200 mM NaCl, 50% (v/v) PEG-200; 2.0 Å; PDB 3ZYM. To be noted: both partners purified.

Several values for one entry are separate records, joined by “and”; a condition that tells them apart may be missing. Equal entries are not always repeated.

For B1, the binding result with SNAP23, GST cleaved is recorded as “binds”.

B2: VAMP8_(1-76)His12, GST cleaved (domain or fragment, mouse, UniProt O70404 1-76, looked up)
chain: MEEASGSAGNDRVRNLQSEVEGVKNIMTQNVERILSRGENLDHLRNKTEDLEATSEHFKTTSQKVARKFWWKNVKM
notes: VAMP8, mouse, residues 1-76; Construct pGEX 4T2 VAMP8_((1-76))His12; also called His12-tagged VAMP8; His-tagged VAMP8; source: E. coli BL21(DE3) pLysS, purified (glutathione sepharose, thrombin cleavage of GST, Ni2+-NTA agarose, dialysis); not shown: GST, N-terminal, cleaved
As for B2, in data set [1], the Kd is 0.9 µM.

B3: CALM_(ANTH(1-264)), GST cleaved (domain or fragment, rat, UniProt O55012 1-264, looked up)
chain: MSGQSLTDRITAAQHSVTGSAVSKTVCKATTHEIMGPKKKHLDYLIQCTNEMNVNIPQLADSLFERTTNSSWVVVFKSLITTHHLMVYGNERFIQYLASRNTLFNLSNFLDKSGLQGYDMSTFIRRYSRYLNEKAVSYRQVAFDFTKVKRGADGVMRTMNTEKLLKTVPIIQNQMDALLDFNVNSNELTNGVINAAFMLLFKDAIRLFAAYNEGIINLLEKYFDMKKNQCKEGLDIYKKFLTRMTRISEFLKVAEQVGIDRGDI
notes: source: E. coli BL21(DE3) pLysS, purified (glutathione sepharose, thrombin cleavage of GST, S200 gel filtration); not shown: GST, N-terminal, cleaved
With B3, the “stoichiometry N” value in data set [2] turned out to be 2.

B4: GST-VAMP3 (VAMP3 residues 1-81) (domain or fragment)
chain: MSTGVPSGSSAATGSNRRLQQTQNQVDEVVDIMRVNVDKVLERDQKLSELDDRADALQAGASQFETSAAKLKRKYWWKNCK
For B4, binding in data set [3] was put at a Kd of 46 µM.

B5: in data set [3], the Kd was ~18 µM and 17 µM and 20 µM. Further, the binding result with SNAP23, GST cleaved was “binds”.

B6: GST-VAMP8_(10-41) (domain or fragment, mouse, UniProt O70404 10-41, looked up)
chain: NDRVRNLQSEVEGVKNIMTQNVERILSRGENL
notes: VAMP8, mouse, residues 10-41 (N-terminal half of the SNARE motif); Construct pGEX 4T2 VAMP8_((10-41)); also called residues 10-41 of VAMP8; source: E. coli BL21(DE3) pLysS, purified (glutathione sepharose, S200 gel filtration)
In data set [3], B6 registered a Kd of 20 µM.

B7: GSTVAMP8 L44PL51P (domain or fragment, mouse, UniProt O70404 1-76, looked up)
chain: MEEASGSAGNDRVRNLQSEVEGVKNIMTQNVERILSRGENLDHPRNKTEDPEATSEHFKTTSQKVARKFWWKNVKM
notes: VAMP8, mouse, residues 1-76; source: E. coli BL21(DE3) pLysS, purified (glutathione sepharose, S200 gel filtration)
Consider B7, for which the Kd in data set [3] was determined as 23 µM.

B8: His6MycCALM_(ANTH) (CALM ANTH domain, residues 1-289) (domain or fragment)
chain: MSGQSLTDRITAAQHSVTGSAVSKTVCKATTHEIMGPKKKHLDYLIQCTNEMNVNIPQLADSLFERTTNSSWVVVFKSLITTHHLMVYGNERFIQYLASRNTLFNLSNFLDKSGLQGYDMSTFIRRYSRYLNEKAVSYRQVAFDFTKVKRGADGVMRTMNTEKLLKTVPIIQNQMDALLDFNVNSNELTNGVINAAFMLLFKDAIRLFAAYNEGIINLLEKYFDMKKNQCKEGLDIYKKFLTRMTRISEFLKVAEQVGIDRGDIPDLSQAPSSLLDALEQHLASLEGKK
B8 yielded a stoichiometry N with GST-SNARE (WT or mutant) of 0.9 to 1.1.

B9: syntaxin3 (residues 195-253), GST cleaved (domain or fragment, human, UniProt Q13277 195-253, looked up)
chain: EGRHKDIVRLESSIKELHDMFMDIAMLVENQGEMLDNIELNVMHTVDHVEKARDETKKA
notes: syntaxin3, human, residues 195-253; Construct pGEX 4T1syntaxin3_((195-253)) (human); also called syntaxin3_((195-253)); Synatxin3(195–253); source: E. coli BL21(DE3) pLysS, purified (glutathione sepharose, thrombin cleavage of GST); not shown: GST, N-terminal, cleaved
B9: the binding result (in the data set with GSTVAMP8 K24AM27A; in data set [4]) was “binds” throughout.

B10: VAMP8_((11-41)) part of the CALM_(ANTH(1-264)):VAMP8_((11-41)) chimera (domain or fragment, mouse, UniProt O70404 11-41, looked up)
chain: DRVRNLQSEVEGVKNIMTQNVERILSRGENL
notes: VAMP8, mouse, residues 11-41; also called VAMP8 helix; residues 11-41 of VAMP8; source: E. coli BL21(DE3) pLysS, purified (as part of the chimera)
In the case of B10, the binding result in data set [5] is listed as “binds”.

(Values after paper PMC3267021, “The Molecular Basis for the Endocytosis of Small R-SNAREs by the Clathrin Adaptor CALM” (Cell, 2011).)
